Values quoted from earlier work in publication PMC2947981.
“And” between values parts separate entries of the source, which are not always exact repeats. Identical values can stand only once. Like-named read-outs stand apart in the source and are kept apart here. Each block holds one substance with its values, some of them ahead of it.

Assays:
[1] = target: Factor VIIa (Homo sapiens) (UniProt P08709)
Factor Va (Homo sapiens) [2] = target: Factor Va (Homo sapiens) (UniProt P12259)
TFPI (Homo sapiens) [3] = target: TFPI (Homo sapiens) (UniProt P10646)
Sequence of UniProt P10646 (P10646 29-304): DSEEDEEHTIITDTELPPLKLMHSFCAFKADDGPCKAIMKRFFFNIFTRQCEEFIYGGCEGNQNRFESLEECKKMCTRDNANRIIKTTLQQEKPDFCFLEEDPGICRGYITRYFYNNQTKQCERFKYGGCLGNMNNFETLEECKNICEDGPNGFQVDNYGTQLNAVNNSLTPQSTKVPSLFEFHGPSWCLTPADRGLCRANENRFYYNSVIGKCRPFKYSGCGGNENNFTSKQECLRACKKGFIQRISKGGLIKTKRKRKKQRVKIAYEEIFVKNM

TFPI (Homo sapiens) [4] = target: TFPI (Homo sapiens) (UniProt P10646); remark: listed apart in the source
Factor Va (Homo sapiens) [5] = target: Factor Va (Homo sapiens) (UniProt P12259); remark: listed apart in the source
TFPI (Homo sapiens) [6] = target: TFPI (Homo sapiens) (UniProt P10646); remark: listed apart in the source
[7] = target: Factor IXa (Homo sapiens) (UniProt P00740)
[8] = target: Factor IXa (Homo sapiens) (UniProt P00740); remark: listed apart in the source
[9] = target: Factor IXa (Homo sapiens) (UniProt P00740); remark: listed apart in the source
TFPI (Homo sapiens) [10] = target: TFPI (Homo sapiens) (UniProt P10646); remark: listed apart in the source
[11] = target: Thrombin (IIa) (Homo sapiens) (UniProt P00734)
Factor Xa (Homo sapiens) = Factor Xa (Homo sapiens) (UniProt P00742)
[12] = target: Corn trypsin inhibitor (CTI) (Zea mays) (UniProt P01088)
Sequence of UniProt P01088 (P01088 29-138): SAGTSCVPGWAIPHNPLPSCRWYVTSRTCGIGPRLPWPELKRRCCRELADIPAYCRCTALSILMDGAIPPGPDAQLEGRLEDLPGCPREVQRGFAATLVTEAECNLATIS

[13] = target: Factor VIIIa A2 A2 (Homo sapiens) (UniProt P00451)
[14] = target: Factor VIIIa2 A2 (Homo sapiens) (UniProt P00451)
[15] = target: Factor VIIIa (Homo sapiens) (UniProt P00451)
[16] = target: Factor VIIIa (Homo sapiens) (UniProt P00451); remark: listed apart in the source
[17] = target: Factor VIIIa (Homo sapiens) (UniProt P00451); remark: listed apart in the source
[18] = target: Factor VIIIa (Homo sapiens) (UniProt P00451); remark: listed apart in the source

Sequence of UniProt P12259 (P12259 29-737, chain 1 of 2): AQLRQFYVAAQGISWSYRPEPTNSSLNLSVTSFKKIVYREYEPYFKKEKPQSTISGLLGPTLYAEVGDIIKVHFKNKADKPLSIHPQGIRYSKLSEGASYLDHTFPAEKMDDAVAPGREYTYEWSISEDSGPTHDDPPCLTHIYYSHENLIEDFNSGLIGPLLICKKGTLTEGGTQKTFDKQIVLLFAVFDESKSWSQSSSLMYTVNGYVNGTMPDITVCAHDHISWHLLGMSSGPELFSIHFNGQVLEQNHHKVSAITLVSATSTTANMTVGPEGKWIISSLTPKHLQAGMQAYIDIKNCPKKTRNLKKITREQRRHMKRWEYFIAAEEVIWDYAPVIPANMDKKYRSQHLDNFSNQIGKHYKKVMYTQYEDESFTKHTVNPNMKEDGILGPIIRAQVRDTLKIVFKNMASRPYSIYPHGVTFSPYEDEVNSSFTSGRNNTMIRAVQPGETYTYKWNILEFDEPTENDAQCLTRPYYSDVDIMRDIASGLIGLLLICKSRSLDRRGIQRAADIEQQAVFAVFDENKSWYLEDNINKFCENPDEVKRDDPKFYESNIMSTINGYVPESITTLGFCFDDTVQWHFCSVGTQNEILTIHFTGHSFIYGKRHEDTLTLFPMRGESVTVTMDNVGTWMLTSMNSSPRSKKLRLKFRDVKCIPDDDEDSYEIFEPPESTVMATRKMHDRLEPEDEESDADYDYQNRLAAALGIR
Sequence of UniProt P12259 (P12259 1574-2224, chain 2 of 2): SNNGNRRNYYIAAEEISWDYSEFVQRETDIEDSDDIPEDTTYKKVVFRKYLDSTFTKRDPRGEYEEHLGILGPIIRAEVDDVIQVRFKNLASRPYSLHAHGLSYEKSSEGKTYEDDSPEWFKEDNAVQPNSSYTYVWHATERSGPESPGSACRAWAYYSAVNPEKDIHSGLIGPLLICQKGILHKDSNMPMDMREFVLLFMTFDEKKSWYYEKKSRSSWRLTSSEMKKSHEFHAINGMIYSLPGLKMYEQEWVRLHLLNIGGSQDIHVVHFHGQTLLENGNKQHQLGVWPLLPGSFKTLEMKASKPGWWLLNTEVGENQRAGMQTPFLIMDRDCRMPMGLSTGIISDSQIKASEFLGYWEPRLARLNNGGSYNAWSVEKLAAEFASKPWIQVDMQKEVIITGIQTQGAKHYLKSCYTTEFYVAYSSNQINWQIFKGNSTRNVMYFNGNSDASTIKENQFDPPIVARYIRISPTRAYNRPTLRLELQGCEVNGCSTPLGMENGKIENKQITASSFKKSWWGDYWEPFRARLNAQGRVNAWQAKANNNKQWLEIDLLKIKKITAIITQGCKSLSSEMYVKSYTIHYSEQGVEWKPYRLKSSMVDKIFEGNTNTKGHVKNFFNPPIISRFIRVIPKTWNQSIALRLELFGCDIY
Sequence of Factor VIIIa (P00451 1668-2351): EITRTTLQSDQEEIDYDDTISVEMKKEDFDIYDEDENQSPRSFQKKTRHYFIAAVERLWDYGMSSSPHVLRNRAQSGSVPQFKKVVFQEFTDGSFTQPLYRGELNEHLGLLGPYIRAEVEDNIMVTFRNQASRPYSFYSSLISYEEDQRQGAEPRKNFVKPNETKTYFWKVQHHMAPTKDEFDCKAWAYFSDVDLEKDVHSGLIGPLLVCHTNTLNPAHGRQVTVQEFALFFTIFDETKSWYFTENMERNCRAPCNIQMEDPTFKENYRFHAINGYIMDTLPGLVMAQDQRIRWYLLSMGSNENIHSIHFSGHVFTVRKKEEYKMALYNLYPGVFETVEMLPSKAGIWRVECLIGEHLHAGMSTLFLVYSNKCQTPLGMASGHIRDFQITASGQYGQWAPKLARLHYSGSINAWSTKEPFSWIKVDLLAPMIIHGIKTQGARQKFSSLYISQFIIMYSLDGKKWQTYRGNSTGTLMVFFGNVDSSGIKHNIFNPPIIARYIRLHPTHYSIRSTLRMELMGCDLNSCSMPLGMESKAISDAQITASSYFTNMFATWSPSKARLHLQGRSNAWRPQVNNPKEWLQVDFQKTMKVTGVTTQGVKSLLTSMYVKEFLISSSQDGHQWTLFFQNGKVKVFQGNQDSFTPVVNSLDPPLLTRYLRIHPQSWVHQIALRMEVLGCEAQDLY
Sequence of UniProt P08709 (P08709 61-212, chain 1 of 2): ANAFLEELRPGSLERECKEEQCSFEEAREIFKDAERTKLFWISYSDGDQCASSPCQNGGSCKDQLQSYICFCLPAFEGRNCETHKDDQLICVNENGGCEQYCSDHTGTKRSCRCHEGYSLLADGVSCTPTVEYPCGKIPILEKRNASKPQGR
Sequence of UniProt P08709 (P08709 213-466, chain 2 of 2): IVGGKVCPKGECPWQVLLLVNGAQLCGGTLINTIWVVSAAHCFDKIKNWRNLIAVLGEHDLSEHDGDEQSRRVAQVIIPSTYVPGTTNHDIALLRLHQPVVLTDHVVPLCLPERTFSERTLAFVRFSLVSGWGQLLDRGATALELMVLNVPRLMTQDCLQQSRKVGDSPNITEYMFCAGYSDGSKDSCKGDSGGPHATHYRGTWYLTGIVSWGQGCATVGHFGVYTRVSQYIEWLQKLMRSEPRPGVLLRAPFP

Substance: Factor VIIIa (from UniProt P00451)
Kd [7]: 0.074 nM | Kd [8]: 0.55 nM | Kd [9]: 4 nM

Substance: TF-VIIa-Xa complex (from UniProt P13726)
Kd (TFPI (Homo sapiens) [10]): 0.00034 nM

Substance: Fibrin II (Fbn2) (from UniProt P02671)
Kd [11]: 10000 nM

Substance: TF-VIIa complex (from UniProt P13726)
Kd (Factor Xa (Homo sapiens)): 860 nM

Substance: Factor VIIIa A1/A3-C1-C2 A1/A3-C1-C2 (from UniProt P00451)
Kd [13]: 260 nM

Substance: Factor IXa (from UniProt P00740)
Kd [15]: 351 nM | Kd [16]: 4 nM | Kd [17]: 0.55 nM | Kd [18]: 0.074 nM

Further lines, results first:

Kd [1]: 20 nM
Substance: GP1bα (from UniProt P07359)

Kd (Factor Va (Homo sapiens) [2]): 0.03 nM | Kd (TFPI (Homo sapiens) [3]): 0.4 nM | Ki (TFPI (Homo sapiens) [4]): 0.0852 nM | Kd (Factor Va (Homo sapiens) [5]): 3.3 nM and 0.5 nM | Ki (TFPI (Homo sapiens) [6]): 0.0652 nM
Substance: Factor Xa (from UniProt P00742)

Ki [12]: 24 nM
Substance: Factor XIIa (from UniProt P00748)

Kd [14]: 270 nM
Substance: Factor VIIIa1-L A1-L (from UniProt P00451)
